The record followed here is patent US20130315910A1 (Xencor, published 2013).

Positions count from the first letter of the chain named. Numbers in names are those of the source.

Sequences and labels used below:
T1: human FcγRIIa (131R), His- and GST-tagged (human, UniProt P12318 34-217)
T1 construct: Expressed in HEK293T cells, purified by nickel chromatography; also called R131 FcγRIIa; not shown: 6xHis and GST tags of the pTT5 vector
T1 sequence (looked up): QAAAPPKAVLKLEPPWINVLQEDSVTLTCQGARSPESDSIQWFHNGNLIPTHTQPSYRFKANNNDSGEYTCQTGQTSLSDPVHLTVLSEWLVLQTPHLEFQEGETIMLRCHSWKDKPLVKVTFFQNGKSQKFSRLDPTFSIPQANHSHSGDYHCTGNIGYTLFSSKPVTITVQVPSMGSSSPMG

T2: human FcγRIIa (131H), His- and GST-tagged (human, UniProt P12318 34-217)
T2 construct: also called H131 FcγRIIa; HIIa; not shown: 6xHis and GST tags of the pTT5 vector
T2 sequence (looked up): T1 sequence (looked up) with R134H

T3: human FcγRIIb receptor protein (R&D Systems) (human, UniProt P31994 46-217)
T3 construct: Bought protein injected over captured antibody in Biacore; also called CD32b
T3 sequence (looked up): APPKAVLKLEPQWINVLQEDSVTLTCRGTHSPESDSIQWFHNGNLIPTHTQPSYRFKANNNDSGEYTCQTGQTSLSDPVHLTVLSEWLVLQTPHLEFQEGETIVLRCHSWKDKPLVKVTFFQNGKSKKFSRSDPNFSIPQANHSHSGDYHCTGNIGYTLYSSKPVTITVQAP

T4: mFcγRIV
T4 construct: also called mouse FcγRIV; not shown: C-terminal His and GST tags (named only on our card)
T4 chain: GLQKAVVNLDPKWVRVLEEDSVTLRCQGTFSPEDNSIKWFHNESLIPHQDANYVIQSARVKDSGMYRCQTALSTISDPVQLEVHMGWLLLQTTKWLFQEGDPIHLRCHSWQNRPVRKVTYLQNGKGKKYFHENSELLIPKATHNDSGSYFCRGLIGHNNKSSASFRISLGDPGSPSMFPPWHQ

T5: cynoFcγRIIb (Macaca fascicularis, UniProt A0A140HDP4)
T5 construct: extracellular region, C-terminal His- and GST-tag; also called cynomolgus monkey FcγRIIb
T5 sequence (receptor extracellular region): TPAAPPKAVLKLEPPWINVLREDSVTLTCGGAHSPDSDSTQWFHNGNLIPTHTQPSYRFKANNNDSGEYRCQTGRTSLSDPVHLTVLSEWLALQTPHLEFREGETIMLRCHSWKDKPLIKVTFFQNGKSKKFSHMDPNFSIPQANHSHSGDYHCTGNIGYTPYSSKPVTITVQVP

T6: mFcγRIIb (Mus musculus, UniProt P08101)
T6 construct: extracellular region, C-terminal His- and GST-tag; also called mouse FcγRII
T6 sequence (receptor extracellular region, looked up): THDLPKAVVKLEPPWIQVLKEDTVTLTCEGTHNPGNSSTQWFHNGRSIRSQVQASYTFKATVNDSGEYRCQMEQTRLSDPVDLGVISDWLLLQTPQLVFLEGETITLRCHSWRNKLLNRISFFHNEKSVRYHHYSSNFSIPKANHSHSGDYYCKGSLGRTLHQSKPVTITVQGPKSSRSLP

B1: G236S (antibody, human IgG1, kappa)
heavy: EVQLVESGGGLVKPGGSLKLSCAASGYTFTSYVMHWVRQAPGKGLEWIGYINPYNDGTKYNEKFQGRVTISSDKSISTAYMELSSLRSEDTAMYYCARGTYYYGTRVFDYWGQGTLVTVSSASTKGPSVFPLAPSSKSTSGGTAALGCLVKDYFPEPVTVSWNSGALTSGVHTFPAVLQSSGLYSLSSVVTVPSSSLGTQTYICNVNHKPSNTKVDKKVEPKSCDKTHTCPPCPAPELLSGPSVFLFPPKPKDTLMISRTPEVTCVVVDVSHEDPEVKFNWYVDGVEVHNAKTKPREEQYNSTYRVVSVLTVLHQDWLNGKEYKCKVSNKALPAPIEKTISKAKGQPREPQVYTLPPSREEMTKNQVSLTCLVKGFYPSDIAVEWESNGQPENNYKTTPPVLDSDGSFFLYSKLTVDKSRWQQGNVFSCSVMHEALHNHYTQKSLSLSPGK
light: DIVMTQSPATLSLSPGERATLSCRSSKSLQNVNGNTYLYWFQQKPGQSPQLLIYRMSNLNSGVPDRFSGSGSGTEFTLTISSLEPEDFAVYYCMQHLEYPITFGAGTKLEIKRTVAAPSVFIFPPSDEQLKSGTASVVCLLNNFYPREAKVQWKVDNALQSGNSQESVTEQDSKDSTYSLSSTLTLSKADYEKHKVYACEVTHQGLSSPVTKSFNRGEC
notes: HuAM4G7 anti-CD19 IgG1 (m1) with this Fc substitution, EU index; copies: 2 + 2
B2: L235Y/S267E/H268E (antibody, human IgG1, kappa)
heavy: EVQLVESGGGLVKPGGSLKLSCAASGYTFTSYVMHWVRQAPGKGLEWIGYINPYNDGTKYNEKFQGRVTISSDKSISTAYMELSSLRSEDTAMYYCARGTYYYGTRVFDYWGQGTLVTVSSASTKGPSVFPLAPSSKSTSGGTAALGCLVKDYFPEPVTVSWNSGALTSGVHTFPAVLQSSGLYSLSSVVTVPSSSLGTQTYICNVNHKPSNTKVDKKVEPKSCDKTHTCPPCPAPELYGGPSVFLFPPKPKDTLMISRTPEVTCVVVDVEEEDPEVKFNWYVDGVEVHNAKTKPREEQYNSTYRVVSVLTVLHQDWLNGKEYKCKVSNKALPAPIEKTISKAKGQPREPQVYTLPPSREEMTKNQVSLTCLVKGFYPSDIAVEWESNGQPENNYKTTPPVLDSDGSFFLYSKLTVDKSRWQQGNVFSCSVMHEALHNHYTQKSLSLSPGK
light: B1 light
notes: HuAM4G7 anti-CD19 IgG1 (m1) with these Fc substitutions, EU index; copies: 2 + 2
B3: L235Y/S267E/L328F (antibody, human IgG1, kappa)
heavy: B2 heavy with E272H, L332F
light: B1 light
notes: as for B2
B4: S267E/A327D (antibody, human IgG1, kappa)
heavy: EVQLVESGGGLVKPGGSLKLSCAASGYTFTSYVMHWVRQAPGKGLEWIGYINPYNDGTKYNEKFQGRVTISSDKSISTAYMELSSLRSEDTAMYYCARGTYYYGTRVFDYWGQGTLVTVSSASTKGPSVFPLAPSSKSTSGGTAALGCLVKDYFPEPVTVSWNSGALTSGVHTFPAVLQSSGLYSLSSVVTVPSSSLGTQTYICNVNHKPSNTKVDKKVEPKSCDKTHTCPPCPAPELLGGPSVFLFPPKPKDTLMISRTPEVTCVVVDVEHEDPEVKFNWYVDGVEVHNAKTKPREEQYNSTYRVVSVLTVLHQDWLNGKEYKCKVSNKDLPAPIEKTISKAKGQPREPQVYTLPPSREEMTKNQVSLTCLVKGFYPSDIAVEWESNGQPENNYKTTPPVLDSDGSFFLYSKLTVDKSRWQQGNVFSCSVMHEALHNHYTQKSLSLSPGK
light: B1 light
notes: as for B2
B5: S239D/S267E/L328F (antibody, human IgG1, kappa)
heavy: B2 heavy with Y239L, S243D, E272H, L332F
light: B1 light
notes: as for B2
B6: S267E/H268E/L328F (antibody, human IgG1, kappa)
heavy: B2 heavy with Y239L, L332F
light: B1 light
notes: as for B2
B7: L235D/S239D (antibody, human IgG1, kappa)
heavy: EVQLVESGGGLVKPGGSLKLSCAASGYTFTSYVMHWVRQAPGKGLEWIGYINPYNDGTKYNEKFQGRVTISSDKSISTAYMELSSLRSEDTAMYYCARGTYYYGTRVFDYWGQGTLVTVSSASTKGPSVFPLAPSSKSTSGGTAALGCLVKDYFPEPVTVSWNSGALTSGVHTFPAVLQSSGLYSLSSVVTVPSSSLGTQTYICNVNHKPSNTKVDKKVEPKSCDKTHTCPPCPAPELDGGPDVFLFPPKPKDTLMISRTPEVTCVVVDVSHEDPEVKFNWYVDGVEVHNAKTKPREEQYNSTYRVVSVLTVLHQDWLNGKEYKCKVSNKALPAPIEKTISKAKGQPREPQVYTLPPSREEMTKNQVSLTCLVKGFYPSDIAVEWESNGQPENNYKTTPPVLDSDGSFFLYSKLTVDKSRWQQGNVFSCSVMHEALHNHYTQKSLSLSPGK
light: B1 light
notes: as for B2
B8: S239D/S267D (antibody, human IgG1, kappa)
heavy: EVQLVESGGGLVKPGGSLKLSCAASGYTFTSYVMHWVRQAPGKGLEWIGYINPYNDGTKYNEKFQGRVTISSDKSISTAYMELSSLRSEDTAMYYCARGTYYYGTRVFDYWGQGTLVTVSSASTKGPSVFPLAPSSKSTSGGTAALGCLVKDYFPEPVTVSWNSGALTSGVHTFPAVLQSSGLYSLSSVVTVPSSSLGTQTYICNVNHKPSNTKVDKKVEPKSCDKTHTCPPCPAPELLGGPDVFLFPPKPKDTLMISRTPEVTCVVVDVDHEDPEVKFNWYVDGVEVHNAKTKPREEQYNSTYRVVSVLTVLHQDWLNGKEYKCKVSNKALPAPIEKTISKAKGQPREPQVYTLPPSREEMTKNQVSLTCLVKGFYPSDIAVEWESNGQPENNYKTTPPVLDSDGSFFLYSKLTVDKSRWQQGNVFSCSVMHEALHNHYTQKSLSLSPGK
light: B1 light
notes: as for B2
B9: S239D/H268D (antibody, human IgG1, kappa)
heavy: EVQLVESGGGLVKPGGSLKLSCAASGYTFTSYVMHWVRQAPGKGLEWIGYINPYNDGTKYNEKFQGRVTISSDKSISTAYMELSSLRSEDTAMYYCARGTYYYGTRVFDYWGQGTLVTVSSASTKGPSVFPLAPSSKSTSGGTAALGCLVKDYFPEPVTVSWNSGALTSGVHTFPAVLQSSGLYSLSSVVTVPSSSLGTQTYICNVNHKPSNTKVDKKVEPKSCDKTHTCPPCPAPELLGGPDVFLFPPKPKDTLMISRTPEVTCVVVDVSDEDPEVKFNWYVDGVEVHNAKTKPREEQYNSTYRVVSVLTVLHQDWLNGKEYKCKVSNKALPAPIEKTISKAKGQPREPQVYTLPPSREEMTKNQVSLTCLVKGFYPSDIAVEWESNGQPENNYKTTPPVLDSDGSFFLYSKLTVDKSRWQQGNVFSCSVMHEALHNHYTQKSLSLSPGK
light: B1 light
notes: as for B2
B10: H268D/A327D (antibody, human IgG1, kappa)
heavy: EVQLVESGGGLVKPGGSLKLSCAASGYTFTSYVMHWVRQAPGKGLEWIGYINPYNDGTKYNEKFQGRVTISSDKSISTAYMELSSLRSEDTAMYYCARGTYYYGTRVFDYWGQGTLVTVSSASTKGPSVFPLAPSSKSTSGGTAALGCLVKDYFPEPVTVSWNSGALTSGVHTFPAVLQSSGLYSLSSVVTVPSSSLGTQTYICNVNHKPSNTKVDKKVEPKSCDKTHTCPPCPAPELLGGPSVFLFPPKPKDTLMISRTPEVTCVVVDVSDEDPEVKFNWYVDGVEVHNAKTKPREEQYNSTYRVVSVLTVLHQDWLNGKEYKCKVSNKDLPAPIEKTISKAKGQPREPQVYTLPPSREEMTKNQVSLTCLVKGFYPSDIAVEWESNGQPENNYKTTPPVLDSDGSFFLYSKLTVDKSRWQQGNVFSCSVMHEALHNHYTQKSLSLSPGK
light: B1 light
notes: as for B2

T8 sequence (P08637 17-208 F176V): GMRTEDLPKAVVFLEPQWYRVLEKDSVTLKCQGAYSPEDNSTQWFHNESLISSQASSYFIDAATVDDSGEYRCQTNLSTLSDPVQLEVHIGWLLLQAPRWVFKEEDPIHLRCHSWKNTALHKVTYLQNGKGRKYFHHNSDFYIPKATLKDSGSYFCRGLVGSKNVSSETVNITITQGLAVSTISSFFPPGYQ

One assay deals with T1, human FcγRIIa (131R), His- and …. Briefly: SPR.
With B1, the “Fold vs WT IgG1” value stood at 2.33 fold and the Kd came to 369 nM.
Consider B2, for which the “Fold vs WT IgG1” value worked out at 48.2 fold and the Kd is 17.8 nM.
As for B3, the “Fold vs WT IgG1” value is 171 fold and the Kd turned out to be 5.02 nM.
For B4 the same measures were 16.7 fold and 51.3 nM.
Turning to B5, the “Fold vs WT IgG1” value was 416 fold and the Kd is 2.06 nM.
For B6, in that order: 253 fold and 3.4 nM.

Another assay concerns the target T2, human FcγRIIa (131H), His- and …. Put plainly: SPR.
Consider B1, for which the “Fold vs WT IgG1” value was determined as 3.76 fold and the Kd came to 172 nM.
For the molecule B2, the “Fold vs WT IgG1” value worked out at 0.157 fold and the Kd was 4130 nM.
With B3, the “Fold vs WT IgG1” value stood at 0.758 fold and binding was characterised by a dissociation constant (Kd) of 853 nM.
For B5, in that order: 1.71 fold and 378 nM.
For B6, in that order: 0.826 fold and 783 nM.

The target of a further assay is T7, human FcγRI receptor protein (R&D Systems) (human, UniProt P12314 16-288).
T7 construct: also called soluble FcγRI; solFcγRI
T7 sequence (P12314 16-288 limits assumed): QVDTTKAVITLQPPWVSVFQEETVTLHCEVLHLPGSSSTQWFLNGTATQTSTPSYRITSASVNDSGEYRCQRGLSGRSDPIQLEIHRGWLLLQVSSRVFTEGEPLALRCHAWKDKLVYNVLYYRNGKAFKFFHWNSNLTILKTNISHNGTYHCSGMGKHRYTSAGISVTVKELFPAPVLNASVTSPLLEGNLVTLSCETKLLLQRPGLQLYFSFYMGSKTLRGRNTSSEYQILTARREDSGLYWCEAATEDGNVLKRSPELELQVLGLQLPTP
Briefly: SPR.
As to B1, the “Fold vs WT IgG1” value was 0.0268 fold and the Kd came to 12.3 nM.
For B2, in that order: 0.0103 fold and 32.1 nM.
For B3, in that order: 0.00436 fold and 75.5 nM.
Regarding B4, the “Fold vs WT IgG1” value was found to be 1.66 fold and the Kd came to 0.198 nM.
Regarding B5, the “Fold vs WT IgG1” value stood at 1.45 fold and the Kd is 0.227 nM.
Regarding B6, the “Fold vs WT IgG1” value was 0.991 fold and the affinity, expressed as Kd, was 0.333 nM.

The next assay concerns the target T8, human FcγRIIIa (158V), His- and GST-tagged (human, UniProt P08637 17-208).
T8 construct: also called V158 FcγRIIIa; VIIIa; not shown: 6xHis and GST tags of the pTT5 vector
Briefly: SPR.
For B1, the “Fold vs WT IgG1” value was 0.00367 fold and binding was characterised by a dissociation constant (Kd) of 52200 nM.
As to B2, the “Fold vs WT IgG1” value was 0.428 fold and the Kd was 447 nM.
As to B3, the binding result was “no binding”.
For B4, the “Fold vs WT IgG1” value amounted to 0.00199 fold and the Kd stood at 96300 nM.
For the molecule B5, the “Fold vs WT IgG1” value amounted to 0.216 fold and binding was characterised by a dissociation constant (Kd) of 887 nM.
For B6, in that order: 0.092 fold and 2080 nM.

The next assay addresses T3, human FcγRIIb receptor protein (R&D …). Put plainly: SPR.
Take B1: the “Fold vs WT IgG1” value was determined as 1.02 fold and binding was characterised by a dissociation constant (Kd) of 1440 nM.
Turning to B7, the “Fold vs WT IgG1” value was determined as 4.11 fold and binding was characterised by a dissociation constant (Kd) of 357 nM.
Take B8: the “Fold vs WT IgG1” value turned out to be 22.3 fold and the affinity, expressed as Kd, was 65.9 nM.
For B2 the same measures were 69.9 fold and 21 nM.
For B3, in that order: 187 fold and 7.83 nM.
For B4, in that order: 21.2 fold and 69.1 nM.
Consider B5, for which the “Fold vs WT IgG1” value amounted to 428 fold and the Kd stood at 3.43 nM.
For B9, in that order: 14.4 fold and 102 nM.
For the molecule B6, the “Fold vs WT IgG1” value came out at 344 fold and the Kd came to 4.26 nM.
For B10, in that order: 7.68 fold and 191 nM.

The target of a further assay is T9, cynoFcγRIIIa (Macaca fascicularis, UniProt Q8SPW2).
T9 construct: extracellular region, C-terminal His- and GST-tag; also called cynomolgus monkey FcγRIIIa
T9 sequence (Q8SPW2 17-208): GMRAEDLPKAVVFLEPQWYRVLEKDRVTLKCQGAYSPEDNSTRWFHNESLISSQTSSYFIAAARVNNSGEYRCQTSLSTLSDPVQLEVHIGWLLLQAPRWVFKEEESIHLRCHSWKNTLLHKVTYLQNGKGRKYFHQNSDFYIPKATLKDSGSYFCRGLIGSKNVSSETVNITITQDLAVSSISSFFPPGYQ
Briefly: SPR.
As to B1, the “Fold vs WT IgG1 (Kd)” value is 1.45 fold.
In the case of B7, the “Fold vs WT IgG1 (off-rate)” value came out at 1.41 fold.
With B8, the “Fold vs WT IgG1 (Kd)” value came out at 7.66 fold and the “Fold vs WT IgG1 (off-rate)” value was determined as 2.73 fold.
As to B5, the “Fold vs WT IgG1 (Kd)” value stood at 1.17 fold.
As for B9, the “Fold vs WT IgG1 (Kd)” value was 8.68 fold and the “Fold vs WT IgG1 (off-rate)” value was determined as 3.62 fold.
As for B6, the “Fold vs WT IgG1 (Kd)” value was 1.04 fold.
As to B10, the “Fold vs WT IgG1 (Kd)” value amounted to 1.73 fold.

In the next assay the target is T4, mFcγRIV. Briefly: SPR.
As for B7, the “Fold vs WT IgG1 (off-rate)” value was 1.57 fold.
For B8, the “Fold vs WT IgG1 (Kd)” value was 1 fold and the “Fold vs WT IgG1 (off-rate)” value turned out to be 1.88 fold.
Regarding B9, the “Fold vs WT IgG1 (Kd)” value was 1.06 fold and the “Fold vs WT IgG1 (off-rate)” value was found to be 2.21 fold.
In the case of B10, the “Fold vs WT IgG1 (Kd)” value was found to be 0.443 fold.

A further assay deals with T5, cynoFcγRIIb. Put plainly: SPR.
In the case of B1, the “Fold vs WT IgG1 (Kd)” value came out at 3.55 fold.
B8: the “Fold vs WT IgG1 (Kd)” value came out at 1.79 fold.
As to B4, the “Fold vs WT IgG1 (off-rate)” value was 0.697 fold.
For the molecule B5, the “Fold vs WT IgG1 (Kd)” value is 4.58 fold.
In the case of B6, the “Fold vs WT IgG1 (Kd)” value came to 3.51 fold.
In the case of B10, the “Fold vs WT IgG1 (Kd)” value was determined as 1.47 fold and the “Fold vs WT IgG1 (off-rate)” value was 1.8 fold.

The next assay has as its target T6, mFcγRIIb. Put plainly: SPR.
Regarding B8, the “Fold vs WT IgG1 (Kd)” value was found to be 1.98 fold.
On to B4, for which the “Fold vs WT IgG1 (off-rate)” value was determined as 0.971 fold.
With B10, the “Fold vs WT IgG1 (Kd)” value came to 3.22 fold and the “Fold vs WT IgG1 (off-rate)” value was 5.09 fold.
